According to patent US20220363766A1, “COMPOSITIONS AND METHODS FOR TREATING CYTOTOXIC T CELL RESISTANT TUMORS” (Dana-Farber Cancer Institute, Inc., priority 2019, published 2022):
“Also recorded” adds a separate entry of the source.

Key:
human NK cells = assay: Characterization of human NK cells in tumor-free NSG mice; assay type: in vivo; conditions: 10 mg/kg, 24 hours later, blood
Method: (§1) Tumor-free NSG mice were inoculated intravenously with 2×10^6 human NK cells that were expanded in vitro as described above. At the same time, mice also received intraperitoneal injections of IL-2 (7.5×10^4) as well as panobinostat (10 mg/kg) or PBS as the solvent control. One day later, blood was collected via eye bleeding, and human NK cells were analyzed by flow cytometry.
as §1, with “(7.5×10^4, Peprotech)” for “(7.5×10^4)”

A375 melanoma cells = assay: Long-term NK cell-mediated killing assay (image cytometry of GFP+ tumor cells); assay type: cell-based; conditions: mAb 20 μg/ml pretreatment 24 hours, human NK cells, IL-2 300 U/ml, 72-hour period
Method: (§2) For long-term NK cell-mediated killing assays, GFP^+ control and B2M-KO A375 cells were pretreated for 24 hours with MICA/B or isotype control mAbs (20 μg/ml) in tissue culture media. Subsequently, tumor cells were detached with Versene, washed with PBS, and plated in black-wall 96-well plates (Corning™, catalog number 3603) at a density of 5×10^3 cells per well. Human NK cells were added 1-2 hours later at different effector to target ratios as indicated in the figures, and IL-2 (300 U/ml) was added to support NK cell survival. The number of GFP^+ tumor cells was tracked over time using a Celigo Image Cytometer (Nexcelom Bioscience, Lawrence, USA), as reported previously.^40
as §2, with “U/ml, BD Biosciences)” for “U/ml)”, “previously (33).” for “previously.^40”

MICA/B = MICA/B shedding assays in A375 melanoma cells (shed MICA ELISA, MICA/B surface levels by flow cytometry); assay type: cell-based; conditions: control and B2M-KO A375 cells, 24 hours, vs isotype control
Method: 5×10^4 tumor cells were cultured for 24 hours in 96-wells plates (flat-bottom for adherent cells or U-bottom for suspension cells) in the presence of different concentrations of antibodies, IFNγ, and/or panobinostat (ApexBio, catalog number A8178), as indicated in each figure. Following a 24-hour culture period, plates were centrifuged for 5 minutes at 500× g, and supernatants were collected for analysis of shed MICA using the Human MICA ELISA Kit (Abcam, catalog number ab59569).
Adherent cells were detached with Versene (Gibco, catalog number 15040-066) to preserve the integrity of MICA/B proteins on the cell surface. Fc receptors were blocked using Human TruStain FcX™ (Biolegend, catalog number 422302), and cells were stained with PE or APC-conjugated anti-human MICA/B clone 6D4 (Biolegend, catalog numbers 320906 or 320908, respectively). […] Data were acquired using a BD Fortessa X20 or Beckman Coulter CytoFLEX LX, and analyses were performed using FlowJo V10 software.
5×10^4 tumor cells were cultured for 24 hours in 96-wells plates (flat-bottom for adherent cells or U-bottom for suspension cells) in the presence of different concentrations of antibodies, IFNγ, and/or panobinostat (ApexBio, catalog number A8178), as indicated in each figure. […]

Molecule | impact on human NK cells transferred to NSG mice (circulating NK cells, CD16a or NKG2D positive NK cells) (human NK cells) | efficacy in NK cell-mediated killing, B2M-KO vs control A375 cells (A375 melanoma cells) | MICA shedding (shed MICA, sandwich ELISA) (MICA/B) | surface levels of MICA/B (flow cytometry) (MICA/B)
Cc1[nH]c2ccccc2c1CCNCc1ccc(/C=C/C(=O)NO)cc1 [panobinostat] | did not negatively impact human NK cells; also recorded: did not inhibit reconstitution of NSG mice with human NK cells | – | – | –
7C6-hIgG1: MICA/B α3 domain specific mAb, clone 7C6 with human IgG1 Fc (antibody, V domains shown) VH: QIQLVQSGPELKKPGETVKVSCKASGYMFTNYAMNWVKQAPEKGLKWMGWINTHTGDPTYADDFKGRIAFSLETSASTAYLQINNLKNEDTATYFCVRTYGNYAMDYWGQGTSVTVSS VL: DIQMTQTTSSLSASLGDRVTISCSASQDISNYLNWYQQKPDGTVKLLIYDTSILHLGVPSRFSGSGSGTDYSLTISNLEPEDIATYYCQQYSKFPRTFGGGTTLEIK | – | substantially more effective against B2M-KO compared to control A375 melanoma cells | inhibited MICA shedding | increased surface levels of MICA/B
